The target in the experiment is SARS-CoV-2 RBD WT (for SPR binding assays) (SARS-CoV-2) (UniProt P0DTC2).

As for S309 IgG1 (antibody), the IC50, neutralisation of authentic SARS-CoV-2 (SARS-CoV-2-Nluc) on Vero E6 cells was 0.0789 µg/mL and the IC90, neutralisation of authentic SARS-CoV-2 (SARS-CoV-2-Nluc) on Vero E6 cells stood at 0.3 µg/mL.

The values above are taken from paper PMC9282883.
